# From patent US20220098304A1 (JIANGSU HENGRUI MEDICINE, published 2022)
# Changes are numbered by the printed parent chain.
# B1: Hu33-1.IgG4AA (antibody, V domains shown)
# VH: EVQLVESGGGLVQPGGSLRLSCAASGFTFSSYAMSWVRQAPGKGLEWVATISGGGVDTYYQDNVQGRFTISRDNAKNSLYLQMNSLRAEDTAVYYCARPYGHGYFDVWGQGTTVTVSS
# VL: DIQMTQSPSSLSASVGDRVTITCRASQDINNFLNWYQQKPGKAPKLLIYYTSSLHSGVPSRFSGSGSGTDFTLTISSLQPEDFATYYCQQGNTLPWTFGGGTKVEIKR
# notes: Full-length IgG4-AA, kappa
# B2: Hu33-7.IgG4AA (antibody, V domains shown)
# VH: B1 VH
# VL: B1 VL with K42G, P44V, F71Y
# notes: Full-length IgG4-AA, kappa
# B3: Hu33-8.IgG4AA (antibody)
# heavy: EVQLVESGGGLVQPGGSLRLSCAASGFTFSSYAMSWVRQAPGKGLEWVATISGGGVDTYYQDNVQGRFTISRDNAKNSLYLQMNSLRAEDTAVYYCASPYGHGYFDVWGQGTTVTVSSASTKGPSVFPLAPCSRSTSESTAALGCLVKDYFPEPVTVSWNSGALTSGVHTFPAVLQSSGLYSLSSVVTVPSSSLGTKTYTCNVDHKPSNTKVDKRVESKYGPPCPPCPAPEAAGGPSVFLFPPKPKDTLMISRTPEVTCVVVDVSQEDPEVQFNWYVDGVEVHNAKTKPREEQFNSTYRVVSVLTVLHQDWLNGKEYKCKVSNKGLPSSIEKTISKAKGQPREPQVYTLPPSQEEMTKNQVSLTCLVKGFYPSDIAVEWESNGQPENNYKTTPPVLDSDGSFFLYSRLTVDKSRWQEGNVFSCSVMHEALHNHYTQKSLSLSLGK
# light: DIQMTQSPSSLSASVGDRVTITCRASQDINNFLNWYQQKPGGAVKLLIYYTSSLHSGVPSRFSGSGSGTDYTLTISSLQPEDFATYYCQQGNTLPWTFGGGTKVEIKRTVAAPSVFIFPPSDEQLKSGTASVVCLLNNFYPREAKVQWKVDNALQSGNSQESVTEQDSKDSTYSLSSTLTLSKADYEKHKVYACEVTHQGLSSPVTKSFNRGEC
# notes: Full-length IgG4-AA, kappa
# B4: Hu33-4.IgG4AA (antibody, V domains shown)
# VH: B1 VH
# VL: B1 VL with F71Y
# notes: Full-length IgG4-AA, kappa
# B5: Hu33-9.IgG4AA (antibody)
# heavy: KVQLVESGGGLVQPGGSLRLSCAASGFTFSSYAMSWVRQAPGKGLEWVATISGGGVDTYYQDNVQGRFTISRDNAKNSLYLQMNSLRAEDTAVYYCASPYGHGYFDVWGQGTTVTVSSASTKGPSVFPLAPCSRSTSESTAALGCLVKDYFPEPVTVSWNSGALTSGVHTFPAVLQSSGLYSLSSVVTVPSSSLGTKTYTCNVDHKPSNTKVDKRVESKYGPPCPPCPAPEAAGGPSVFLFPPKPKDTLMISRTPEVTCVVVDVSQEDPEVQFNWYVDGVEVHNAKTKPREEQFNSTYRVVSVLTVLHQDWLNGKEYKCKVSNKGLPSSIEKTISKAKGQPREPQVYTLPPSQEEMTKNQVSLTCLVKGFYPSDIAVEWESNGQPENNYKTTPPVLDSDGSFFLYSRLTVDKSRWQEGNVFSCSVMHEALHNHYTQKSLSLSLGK
# light: B3 light
# notes: Full-length IgG4-AA, kappa
# B6: murine antibody M32 (antibody, V domains shown)
# VH: QVQLQQSGAELVRPGASVTLSCKASDFTFTDYEIHWVKQTPVHGLEWIGLFDPETGGIVYNQKFKGKAILTADKSSNTAYMEFRSLTSEDSAVYYCTREGYNRDWYFDVWGTGTTVTVSS
# VL: DVLMTQTPLSLPVSLGDQASISCRSSQSIVHSNGNTYLEWYLQKPGQSPKLLIYKVSNRFSGVPDRFSGSGSGTDFTLKISRVEAEDLGIYYCFQGSHVPYAFGGGTKLEIK
# B7: murine antibody M33 (antibody, V domains shown)
# VH: KVMLVESGGGLVKPGGSLKLSCAASGFTFSSYAMSWVRQTPEKRLEWVATISGGGVDTYYQDNVQGRFTISRDNAKNTLYLQMSSLRSEDTALYYCASPYGHGYFDVWGTGTTVTVSS
# VL: DIQMTQTTSSLSASLGDRVTISCRASQDINNFLNWYQQKPDGTVKLLIYYTSSLHSGVPSRFSGSGSGTDYSLTISNLEQEDIATYFCQQGNTLPWTFGGGTKLEIK
# Target: T1, Human PD-1-His protein (Cat. #10377H08H, Sino Biological) (human, UniProt Q15116 25-167)
# T1 construct: Bought protein; also called hPD-1-His; hu PD-1-his; not shown: His tag of the bought protein
# T1 sequence (Q15116 25-167 limits assumed): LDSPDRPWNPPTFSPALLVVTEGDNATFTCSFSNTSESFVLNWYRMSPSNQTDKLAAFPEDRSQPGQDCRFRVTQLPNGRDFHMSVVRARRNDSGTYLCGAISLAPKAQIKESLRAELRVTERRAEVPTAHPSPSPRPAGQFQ
# Assay: SPR (Biacore), antibody captured on Protein A chip, PD-1 in flow
# Excerpt: IgG was affinity captured by using a Protein A biosensor chip (Cat. #29127556, GE). Human PD-1 antigen (Cat. #10377H08H, Sino Biological) and Cyno PD-1 antigen (purchased from Sino Biological) flowed across the surface of the chip, and the binding and dissociation curves were obtained by real time detection of PD-1 antibody and antigen PD-1 reaction signals by a Biacore T200 instrument. After the dissociation of each experimental cycle was completed, the biosensor chip was washed and regenerated with 10 mM Glycine-HCl pH 1.5 buffer. The experimental buffer system was 1×HBS-EP buffer solution (Cat #BR-1001-88, GE). After the experiment, GE Biacore T200 Evaluation version 3.0 software was used to fit the data with a (1:1) Langmuir model, and the affinity value was obtained.
Kd [nM],koff [s⁻¹],kon [M⁻¹ s⁻¹],Binder
19.3,0.00128,66100,B1
33.8,0.0026,76900,B2
1.06,0.000162,153000,B3
31.4,0.00255,81100,B4
1.09,0.000153,140000,B5
5.3,0.000415,78300,B6
0.737,0.000227,308000,B7
